Data: patent US7238711 (CAMBRIDGE ENTERPRISE, dated 2007)

T1: Duffy Antigen Receptor for Chemokines (DARC) (human, UniProt Q16570 1-336)
T1 construct: whole, on cells; also called red blood cells expressing DARC
T1 sequence (looked up): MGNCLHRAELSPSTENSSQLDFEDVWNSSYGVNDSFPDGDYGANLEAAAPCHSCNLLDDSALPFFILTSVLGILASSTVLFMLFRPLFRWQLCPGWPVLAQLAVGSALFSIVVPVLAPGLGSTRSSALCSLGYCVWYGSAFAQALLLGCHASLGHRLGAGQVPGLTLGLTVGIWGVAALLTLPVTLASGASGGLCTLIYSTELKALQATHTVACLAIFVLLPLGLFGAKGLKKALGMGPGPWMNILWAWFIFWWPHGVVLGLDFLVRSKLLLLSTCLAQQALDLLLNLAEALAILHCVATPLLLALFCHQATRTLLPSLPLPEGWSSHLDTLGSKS

B1: Pep2(1-14)[MIP1α] (peptide)
peptide: DYFETSSQCSKPGV
notes: also called Pep2[MIP1α]; peptide 2(1-15)[MIP1-α]
B2: Pep2(1-15)[SDF1] (peptide)
peptide: HLKILNTPNCALQIV
notes: also called Pep2[SDF1]; peptide 2(1-15)[SDF1α]
B3: peptide 2(1-15)[MCP-1] (peptide)
peptide: SYRRITSSKCPKEAV
notes: also called Pep2[MCP1]; Pep2(1-15)[MCP1]

target: T1, Duffy Antigen Receptor for Chemokines …; test: ka for red blood cells divided by ka for THP-1 cells

Row | Duffy selectivity | Binder
1 | > 100 | B1
2 | < 1 | B2
3 | 0.18 | B3

target: T1, Duffy Antigen Receptor for Chemokines …; test: DARC binding, Table 18

Row | DARC binding [µM] | Binder
4 | 19 | B2
5 | 22 | SYRRITSSKC
6 | 0.1 | B3
